Measured values taken from the supplement of paper PMC12764529.
± gives the half width of the 95% confidence interval.

Experiments:
[1] = folding stability dG unfold from trypsin proteolysis; higher = more stable
How it was run: (§1)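 Only designs with AlphaFold2 dimer inter-PAE above 15 were retained; each was a mini-protein under 80 residues with no cysteine, in a PA-tagged cDNA display construct. After digestion with trypsin and chymotrypsin and sequencing, K50 was inferred by Bayesian fitting of counts, and unfolding free energy was derived per protease or combined against a sequence-predicted unfolded-state K50 and a shared folded-state K50.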

[2] = folding stability dG unfold from chymotrypsin proteolysis; higher = more stable
How it was run: as §1

[3] = folding stability dG unfold (combined trypsin and chymotrypsin); higher = more stable
How it was run: as §1

Sequence | folding stability dG unfold [1] [kcal/mol] | folding stability dG unfold [2] [kcal/mol] | folding stability dG unfold [3] [kcal/mol]
SAGMVRIELRPRPDGRPIALIDVGAPGGPPRRFEIEVDETETLDDIAERLRAEGFDLPEGIDLEELAGSAGG [r19_263_TrMRF] | 1.08 ± 0.018 | 2.243 ± 0.011 | 1.91 ± 0.044
SAGMVTISVTRPSSGTYVLNISNPLTGETETITLSTADPAAFKATAEAIAAELEAKGYPVKINLTPTAGSAG [r5_815_JUSTAS] | 3.6 ± 0.063 | 3.788 ± 0.014 | 3.73 ± 0.048
SAGMVVLTEPGNGRLVVSELPEELAEEIARELGLPDITPVPPGVPAEEARAAHPALTAALEIPPEVLLSAGG [r19_270_JUSTAS] | -0.149 ± 0.16 | 0.0886 ± 0.032 | 0.0846 ± 0.14
SAGMVVVEIRTRDGRTLTVEVEAESEEEAERLARELAEELRRKFPDLEIRVERVEPPEPPEEVVEEEEESAG [r5_950_TrROS_Hall] | 3.23 ± 0.13 | 3.41 ± 0.13 | 3.42 ± 0.21
SAGMYMVTITWEYPNGWTFEFMVFVRGPNPEEAREQVDEAAREIFEQRDHPIKDVKVDVQPMPPGQEISAGG [r19_335_TrROS] | 1.96 ± 0.064 | 3.18 ± 0.054 | 2.84 ± 0.23
SAGMYSETLLEEREYPDGTKEKLYRITKPGGVEELRLVREPLTFDPNNGGPGRKEEVKTAKPDEEIELESAG [r5_122_JUSTAS] | 0.721 ± 0.026 | 1.12 ± 0.14 | 1.03 ± 0.1
SAGNIKIEVEELGPGWYVIKVEIPYDSPEQMLDMIKDIIRDFFGEPVKIDEVEIDPDEGWIEKTIRIPLSAG [r5_810_TrROS] | 1.58 ± 0.067 | 1.64 ± 0.07 | 1.67 ± 0.12
SAGNIQIEPTDGKWRIRITYWMPDPDEITPDTFKNLLRNLGLPIKDIDIEPEPNPNGQRYVTAEIWIPVSAG [r5_922_TrROS] | 2.84 ± 0.043 | 3.34 ± 0.071 | 3.23 ± 0.059
SAGNKVEIMLMVPMKPDPDGEPEIDPQMIREIAKAAGAEGRVEDVDIQPMPDYYMIRVRLPGKEIWIMSAGG [r19_398_TrROS] | 1.46 ± 0.031 | 1.1 ± 0.13 | 1.38 ± 0.11
SAGNPPVTITITINPFRHGDEPMYHVKIKNPGGKEREIPFPPDEFKEQIENEFPNIDEIEVEPMRLPPGSAG [r5_25_TrROS] | 0.207 ± 0.14 | 0.615 ± 0.29 | 0.408 ± 0.49
SAGPAVVIPLPLDPEKWSPEEILEAAIKLAEEAYKAGLPGSVTLLVPVPEKPLLITIDPKTGKITVDPSAGG [r19_204_TrMRF] | 1.49 ± 0.083 | 1.73 ± 0.066 | 1.63 ± 0.072
SAGPEITREFVSYDPETGLRYFEYTLINKKNGKEVKKVKVGYSLYDLASGTERPLPEEELKKRAEEALKSAG [r5_909_JUSTAS] | -0.118 ± 0.13 | 0.433 ± 0.16 | 0.24 ± 0.16
SAGPEPDWVYIKAKVDKGGIKIEWYNPDGPWEFKLPDGEEIYIFIPPGGSPEDMLDEFKNFAKELADKSAGG [r19_170_TrROS] | 1.41 ± 0.22 | 2.1 ± 0.21 | 2.18 ± 0.71
SAGPGHELKIDIERDPGNGIIKLSITYPNGIKYEMLIFRNPDNGKWFIFINIERDPGRIKIDIGIFPLSAGG [r19_394_TrROS] | 3.28 ± 0.083 | 5.05 ± 0.13 | 4.7 ± 0.2
SAGPIKEKTITFPNGMRAKITDIQVGPPPDGEPLIKLKVKVEMWQPKRDPDGKQDGWQPMKMEMTLIIPSAG [r5_476_TrROS] | 2.68 ± 0.18 | 3.91 ± 0.058 | 3.51 ± 0.36
SAGPIKIVVNPDGMLIMVFPHPDGSLMVMIFTFKPNPKNGKRRFEMEMIMIDPDPGDPHVMTMRFEIPPSAG [r5_424_TrROS] | 3.37 ± 0.15 | 4.88 ± 0.09 | 4.08 ± 0.18
SAGPKAEIINKNGKKISFSAKNIKITSYPEKGILTGIIPKKNKKIEIKVDNNKITLIVYDGGKYKEFPISAG [r5_786_TrMRF] | 2.07 ± 0.071 | 3.97 ± 0.22 | 2.21 ± 0.55
SAGPKIELEVDPENPNVARAKVIDPANGEEIDEVEVPVTTLPDGTVLVPAKIKYKGSGKTLELPFTVEGSAG [r5_610_TrMRF] | -0.4 ± 0.44 | 0.133 ± 0.26 | -0.126 ± 0.28

Sequence | folding stability dG unfold [1] [kcal/mol] | folding stability dG unfold [2] [kcal/mol] | folding stability dG unfold [3] [kcal/mol]
SAGPKTITIWFRSPEWIRKLAKELGFEIKKVKRTGDYWSVEFTREGGKNIEIHIPDDALKELGFDLDDISAG [r5_12_TrROS] | 2.3 ± 0.044 | 2.28 ± 0.089 | 2.25 ± 0.057
SAGPNFKIEIVPNPNGMEPIATIRPPGRTIVIYRNSNGGYHVQRFDPNNGKPVKQFNMPAEEIIKEILSAGG [r19_188_TrROS] | 0.348 ± 0.1 | 0.655 ± 0.34 | 0.551 ± 0.19
SAGPPDWKPIAEFEYNIPMPPGETASEIENEILERIRPQGIKYVTIPVQYDPENGWIQVDVEIWVPPGASAG [r5_924_TrROS] | 0.898 ± 0.03 | 0.849 ± 0.16 | 0.891 ± 0.11
SAGPPEFELVGEFEAEAPGGVPVRVRVIRLPGGDVLVVVTHPDDTVTLGFIPAETGEWHLALSFPADVLSAG [r5_750_TrMRF] | 2.82 ± 0.057 | 2.369 ± 0.014 | 2.58 ± 0.057
SAGPPIWIRAEIEHPRPNPDDGEPQERKREVWIRLPEDLLENGMPVEELAKELASNYPGYKVKIDEILSAGG [r19_110_TrROS] | 0.552 ± 0.026 | -0.915 ± 0.38 | 0.159 ± 0.15
SAGPTVRIHLPGFEPIRFPPGDELALPFPNGYYLIIRRKPDGEVEVFPMGGEERKLPDADEVEIYMFPASAG [r5_869_TrROS] | 0.665 ± 0.11 | 1.32 ± 0.15 | 1.07 ± 0.13
SAGPTVTVELEIRLPPELRGLSPEELAELLARELEEAGYTVEVVEVEEEDGYVTVRVRVTVPLPPPPPESAG [r5_80_TrROS_Hall] | 3.59 ± 0.11 | 3.29 ± 0.13 | 3.52 ± 0.13
SAGPVIATADVEVYEDGTAKITLTLRTLTENGELLPDVTLPITLPLPPGSKATITVNLDDGEITITVGDSAG [r5_179_TrMRF] | 4.07 ± 0.12 | 3.79 ± 0.16 | 3.96 ± 0.11
SAGPVLLELESPSGGRYRIALPPNVTEIRRVGDRFIIRLPDGFSLVIEVDEDEPPSTLNDIKILAVIPSAGG [r19_274_TrMRF] | 2.19 ± 0.03 | 2.41 ± 0.045 | 2.38 ± 0.043
SAGPVVEVKPLETQALPDGSVRVVAEVTIKDPNSEKTTVVTVEATARVAPDGRPVSIEEIVEKAIKELKSAG [r5_604_JUSTAS] | 0.801 ± 0.043 | 1.26 ± 0.046 | 1.06 ± 0.057
SAGPYYIITVTIPLPNLSPDLQEDFPGQKVTFMFIVDPGMDMEQKRQIKEELRDFGIKDVDIMPADDIKSAG [r5_60_TrROS] | 1.27 ± 0.026 | 2.58 ± 0.03 | 2.2 ± 0.1
SAGQIVTTDPATGVTTVTIPFPDGSYATITITVEKLTPDKESIVSVDVDFKDKGKKVVPAAVLVEEILSSAG [r5_842_JUSTAS] | 0.25 ± 0.084 | 1.07 ± 0.11 | 0.851 ± 0.17
SAGQLPPGETYTAEIEIRKNEPITLEEIAKKLPGYEFDSVKVEPMPDGWTRITITMTPGDVDKIQDAIRSAG [r5_554_TrROS] | 0.92 ± 0.044 | 1.87 ± 0.031 | 1.65 ± 0.092
SAGRFIRIRFKDPGMSMDNLVKEIKEELGIPPDHKVTIDWEPDPNGGYEITIQVDDPQVRDKILEALRSAGG [r19_215_TrROS] | 3.46 ± 0.1 | 2.5 ± 0.081 | 2.97 ± 0.15
SAGRIHFMDSPSQARDQAEENNYPIVIGMDKGSGWMQIAIYKGGKPKPIRQIPPNNPEINRFIKKLGFTSAG [r5_458_TrROS] | 0.149 ± 0.093 | -0.14 ± 0.16 | 0.0603 ± 0.14
SAGRIRKAIREAFGMDITSIDIDVKENPNGSKKVEIDIHMNNPSQRRRMADAIIEELGYPIKEIEITPMSAG [r5_542_TrROS] | 0.748 ± 0.24 | 0.558 ± 0.2 | 0.629 ± 0.17
SAGRITIDPEDWRIEVKPPNGKKREISPDKIQELLREQKQKGKPPTAEEIAEKIMDEFPGYEVEIHPRSAGG [r19_46_TrROS] | 0.894 ± 0.1 | 1.22 ± 0.073 | 1.06 ± 0.3
SAGRVRLEIVIMIPIDPEQLENLPPSIRDPNGMEIYENGDMIMIKMPIPIPPPPVPDPDGKKMTPEELSAGG [r19_148_TrROS] | 1.44 ± 0.052 | 0.493 ± 0.11 | 0.982 ± 0.24
